B1: EDARADD (parent)
chain: VEKVLRRWVDEEWPKRERGDPSRH

Variants of: B1
Assay: protein stability index of a GFP-peptide fusion (GPS, HEK-293T) (PSI 1-6); higher = more stable
Details: c terminus: a fixed tail appended
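Further: lentivirally expressed fusions sorted by FACS into six bins by GFP to DsRed ratio, PSI derived from sequencing read proportions per bin multiplied by bin number.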

Protein stability index: each site, then its substitutions
V4: Q 2.76; S 4.21; L 2.2; R 3.42; E 4.41; A 2.89; H 3.6; T 3.08; M 2.67; W 3.53; C 2.62; I 2.69; D 4.08; N 4.2; Y 2.5; P 3.71; K 3.06; F 1.97
V1: H 3.42; P 3.94; G 3.61; L 2.19; M 2.95; F 1.98; N 3.91; T 2.91; K 2.85; A 4.29; Y 2.56; I 2.2; R 4.16; C 2.77; D 4.36; E 4.19; W 2.28; Q 2.65; S 2.39
L5: V 3.23; P 4.07; E 4.5; T 3.98; S 2.8; F 3.25; N 3.94; H 4.26; A 4.3; Q 2.78; Y 2.34; I 2.96; C 2.71; R 1.99; G 4.19; K 2.96; D 4.57; M 3.3; W 2.98
G19: E 3.14; D 3.1; H 3.06; L 2.37; F 2.05; K 2.79; M 2.54; I 2.6; C 2.52; N 2.41
K3: E 3.55; Y 2.77; W 1.36; S 3.01; L 2.41; G 4.05; C 3.38; H 5.03; P 3.8; D 4.38; I 1.25; A 2.78; Q 2.85; T 2.14; N 3.26; F 2.21; V 2.09
W8: C 4.03; P 4.71; L 2.76; I 3.4; M 3.69; D 4.56; G 4.8; T 4.06; R 4.13; S 4.97; Q 4.78; A 3.98; Y 3.12; E 4.22; N 5.25; F 3.34; H 4.08; K 4.43
R6: E 3.72; Y 3.13; P 5.27; M 3.14; F 2.76; W 3.38; C 3.06; S 3.6; D 4.34; G 3.12; N 3.94; A 3.88; K 3.86; L 2.57; I 2.47; T 3.84; Q 3.79
R18: Q 3.53; D 3.18; P 3.34; L 2.81; T 2.96; W 2.64; A 2.29; F 2.5; I 3.12; M 3.15; S 2.83; H 3.18; E 3.73; K 1.81; V 2.99; Y 2.44; C 2.91; N 3.22; G 3.58
D10: C 2.69; I 2.65; Q 2.73; G 3.39; S 3.4; H 2.44; F 2.81; L 3.29; T 2.74; A 2.53; P 3.4; R 2.62; M 2.26; N 2.71; W 2.88; K 2.4; V 2.47; Y 2.59
R16: C 2.67; V 2.49; Q 2.1; N 3.62; A 3.55; K 2.48; E 3.66; L 2.69; Y 2.14; I 3.77; P 3; T 3.46; F 2.46; D 2.83; M 2.7; S 2.58
K15: P 3.58; V 2.29; F 2.74; Y 2.31; I 2.82; A 2.72; T 3.51; W 1.71; S 3.33; H 3.55; D 3.17; Q 2.24; E 3.96; R 2.42; C 3.18; G 3.44; N 2.25; L 2.41; M 2.97
W13: L 3.38; R 3.96; Q 3.94; H 4; Y 2.79; A 3.42; D 3; P 3.75; F 2.01; M 2.62; T 3.38; V 3.98; C 3.21; E 3.75; G 4.24; S 3.54; I 3.35; N 3.86
V9: R 3.48; Y 3.1; T 3.72; N 3.59; G 3.83; C 2.72; H 3.46; I 2.38; F 2.55; Q 3.31; K 2.9; A 3.57; D 4.36; W 3.05; E 4.17; S 4.07; P 3.51; M 3.17
E12: R 3.4; H 1.99; I 2.06; N 1.92; C 2.28; P 2.4; D 2.45; F 1.78; W 1.54; T 2.27; V 2.12; S 2.36; K 2.66; Q 1.95; G 2.81; M 2.08; A 1.87; Y 1.81
E11: F 2.16; Y 2.09; W 1.96; Q 3.05; M 1.74; H 2.44; A 2.73; T 2.61; V 1.88; K 2.08; N 3.19; D 3.28; G 3.1; S 2.71; C 2.43; R 1.59; P 2.2; I 2.7
E2: Y 1.89; M 1.96; A 2.61; V 1.63; H 2.37; D 2.9; I 1.72; P 2.94; T 2.24; N 3.23; W 2.05; S 2.46; R 2.53; L 1.39; Q 2.51; F 1.45; C 2.3; K 1.24
P14: A 2.31; Y 2.32; R 3.06; F 2.14; V 2.92; T 2.49; W 2.38; E 2.05; D 2.39; M 2.62; L 2.13; N 2.8; S 2.59; K 2.82; G 2.22; C 3.5
R7: E 3.91; C 2.35; M 2.69; H 3.56; I 2.32; P 3.9; Q 3.45; W 2.49; K 3.29; T 3.6; A 3.09; S 3.46; D 4.05; F 3.61; G 3.98; Y 2.7; L 2.62; N 4.48; V 3.43
E17: Y 2.55; H 3.27; V 1.96; L 2.7; P 1.68; W 1.83; C 2.26; G 3.32; I 2.19; S 2.44; D 3.53; K 2.96; N 2.84; M 2.97; A 3.43; F 2.01; Q 2.99; T 2.45; R 2.85

Reference: the supplement of paper PMC10567573
